For assay [1], the target named is T1, full-length beta-Catenin (Uniprot ID P35222) (Homo sapiens (Human), UniProt P35222 1-781).
T1 construct: also called bCat; B-Catenin
T1 sequence: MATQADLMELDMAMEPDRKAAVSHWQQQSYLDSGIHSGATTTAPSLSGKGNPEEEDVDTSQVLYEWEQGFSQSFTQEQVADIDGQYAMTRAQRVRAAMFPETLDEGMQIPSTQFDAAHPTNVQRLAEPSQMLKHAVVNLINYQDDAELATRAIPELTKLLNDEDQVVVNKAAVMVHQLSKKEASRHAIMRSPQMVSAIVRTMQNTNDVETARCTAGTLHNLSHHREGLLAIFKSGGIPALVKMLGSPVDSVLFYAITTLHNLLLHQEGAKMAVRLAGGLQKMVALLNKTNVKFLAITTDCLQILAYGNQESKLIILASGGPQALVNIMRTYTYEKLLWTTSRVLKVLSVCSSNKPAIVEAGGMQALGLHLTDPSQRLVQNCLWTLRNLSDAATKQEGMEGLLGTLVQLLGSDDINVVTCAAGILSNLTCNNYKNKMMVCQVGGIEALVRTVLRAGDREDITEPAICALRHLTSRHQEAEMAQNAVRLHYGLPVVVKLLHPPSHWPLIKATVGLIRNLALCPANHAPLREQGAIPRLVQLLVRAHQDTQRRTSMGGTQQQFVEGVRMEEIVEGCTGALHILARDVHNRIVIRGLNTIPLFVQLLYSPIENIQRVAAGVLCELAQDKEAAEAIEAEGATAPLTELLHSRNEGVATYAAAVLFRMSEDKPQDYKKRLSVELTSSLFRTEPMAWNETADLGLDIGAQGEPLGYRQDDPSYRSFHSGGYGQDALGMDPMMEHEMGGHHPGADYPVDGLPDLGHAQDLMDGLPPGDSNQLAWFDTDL
Put plainly: fluorescence polarization competition; 10 nM full-length beta-catenin, competitor 10 nM 5FAM-TCF4(10-53). On the procedure:
(§1) The plate was incubated protected from light for 60 minutes at 20° C. prior to read. Reads were performed on a CLARIOstar plate reader (BMG Labtech) in duplicate, and data were fitted to a 1:1 binding model with hill slope using an in-house script. All provided concentrations are final concentrations.
In general terms: Fluorescence polarisation rises when a labelled molecule tumbles more slowly, as on binding a larger partner.

For another assay, the target named is T2, B-cat-Halo (UniProt P35222 1-781).
T2 sequence (looked up): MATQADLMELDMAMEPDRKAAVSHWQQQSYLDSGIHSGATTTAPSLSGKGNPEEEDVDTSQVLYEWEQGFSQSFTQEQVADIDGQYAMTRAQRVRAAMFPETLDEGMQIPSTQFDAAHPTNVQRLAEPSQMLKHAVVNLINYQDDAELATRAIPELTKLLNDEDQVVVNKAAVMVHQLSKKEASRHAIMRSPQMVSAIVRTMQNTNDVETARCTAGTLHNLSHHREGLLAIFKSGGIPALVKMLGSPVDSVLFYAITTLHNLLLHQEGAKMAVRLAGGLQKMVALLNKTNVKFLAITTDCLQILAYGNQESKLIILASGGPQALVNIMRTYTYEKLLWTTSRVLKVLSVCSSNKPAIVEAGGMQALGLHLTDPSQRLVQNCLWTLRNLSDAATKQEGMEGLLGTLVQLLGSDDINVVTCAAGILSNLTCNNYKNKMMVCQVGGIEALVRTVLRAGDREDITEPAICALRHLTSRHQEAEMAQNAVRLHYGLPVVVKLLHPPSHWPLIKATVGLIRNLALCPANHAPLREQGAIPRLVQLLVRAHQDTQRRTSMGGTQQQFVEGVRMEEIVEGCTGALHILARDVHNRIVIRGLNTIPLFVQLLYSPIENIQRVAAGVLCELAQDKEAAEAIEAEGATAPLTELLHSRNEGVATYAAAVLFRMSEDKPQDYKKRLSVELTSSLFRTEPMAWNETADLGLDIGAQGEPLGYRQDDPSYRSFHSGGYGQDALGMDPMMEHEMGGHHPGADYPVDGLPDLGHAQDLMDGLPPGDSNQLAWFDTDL
Put plainly: cell-based or functional assay.

The target of assay [2] is T3, full-length beta-Catenin (Uniprot ID P35222) (Homo sapiens (Human), UniProt P35222 1-781).
T3 construct: also called bCat; B-Catenin
T3 sequence: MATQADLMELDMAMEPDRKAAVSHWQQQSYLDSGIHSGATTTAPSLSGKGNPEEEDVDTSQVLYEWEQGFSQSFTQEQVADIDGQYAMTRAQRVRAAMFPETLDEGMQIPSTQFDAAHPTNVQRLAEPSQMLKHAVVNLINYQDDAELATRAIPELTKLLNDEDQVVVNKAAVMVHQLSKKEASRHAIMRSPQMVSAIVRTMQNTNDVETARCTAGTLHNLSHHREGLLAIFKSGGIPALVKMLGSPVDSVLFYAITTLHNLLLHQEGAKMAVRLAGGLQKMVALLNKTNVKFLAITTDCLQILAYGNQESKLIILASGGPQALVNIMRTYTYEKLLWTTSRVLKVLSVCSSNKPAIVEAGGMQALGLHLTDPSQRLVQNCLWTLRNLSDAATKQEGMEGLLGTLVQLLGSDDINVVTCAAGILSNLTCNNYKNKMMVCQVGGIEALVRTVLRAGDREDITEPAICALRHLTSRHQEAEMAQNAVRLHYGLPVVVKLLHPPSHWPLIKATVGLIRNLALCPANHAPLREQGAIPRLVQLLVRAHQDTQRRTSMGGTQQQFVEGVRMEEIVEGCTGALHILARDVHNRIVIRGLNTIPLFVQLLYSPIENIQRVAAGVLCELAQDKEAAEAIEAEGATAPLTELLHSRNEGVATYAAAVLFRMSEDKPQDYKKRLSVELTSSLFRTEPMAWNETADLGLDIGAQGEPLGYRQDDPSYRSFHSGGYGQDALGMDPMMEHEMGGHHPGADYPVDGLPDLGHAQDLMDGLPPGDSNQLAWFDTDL
Put plainly: fluorescence polarization competition; displacement of 5FAM-TCF4(10-53) from full-length beta-catenin. On the procedure: as §1

Starred links: 1 amine or outer side, 2 acyl side, 3 side chain; linkers in the order of their positions; H or OH if unused. Positions of bridges follow the written chain, without caps; N, C: chain ends. Non-standard residues stand in square brackets, D forms with d. Primed or numbered codes have the meaning given here. B5(17) = 2,2-bis(4-pentenyl)glycine = 2-amino-2-(pent-4-en-1-yl)hept-6-enoic acid, stitching residue, C=CCCCC(CCCC=C)(N[*:1])C(=O)[*:2]; B5(4) = 2,2-bis(4-pentenyl)glycine = 2-amino-2-(pent-4-en-1-yl)hept-6-enoic acid (stitching residue), C=CCCCC(CCCC=C)(N[*:1])C(=O)[*:2]; B5(5) = 2,2-bis(4-pentenyl)glycine, 2-amino-2-(pent-4-en-1-yl)hept-6-enoic acid (stitching residue), C=CCCCC(CCCC=C)(N[*:1])C(=O)[*:2]; PyrS2 = (S)-3-amino-1-((pent-4-en-1-yloxy)carbonyl)pyrrolidine-3-carboxylic acid, C=CCCCOC(=O)N1CC[C@@](N[*:1])(C(=O)[*:2])C1; B5(9) = 2-amino-2-(pent-4-en-1-yl)hept-6-enoic acid (2,2-bis(4-pentenyl)glycine), C=CCCCC(CCCC=C)(N[*:1])C(=O)[*:2]; B5(19) = 2-amino-2-(pent-4-en-1-yl)hept-6-enoic acid (bis(4-pentenyl)glycine), C=CCCCC(CCCC=C)(N[*:1])C(=O)[*:2]; 7F1NapA = 3-(7-fluoronaphthalen-1-yl)-L-alanine, O=C([C@H](Cc1cccc2ccc(F)cc12)N[*:1])[*:2]; Phe(3-CF3) = N[C@@H](Cc1cccc(C(F)(F)F)c1)C(=O)O; Phe(3-COOH) = N[C@@H](Cc1cccc(C(=O)O)c1)C(=O)O; Phe(2-CF3) = N[C@@H](Cc1ccccc1C(F)(F)F)C(=O)O; Phe(3,4-Me2) = Cc1ccc(C[C@H](N)C(=O)O)cc1C; Bta = N[C@@H](Cc1csc2ccccc12)C(=O)O; αAllylPro = C=CC[C@@]1(C(=O)O)CCCN1; tBuAla = CC(C)(C)C[C@H](N)C(=O)O; S8 = C=CCCCCCC[C@](C)(N)C(=O)O

For orientation: EC50 means the midpoint of the concentration-response curve. A low value points to greater potency.

B1: I-373 (peptide)
peptide: Ac-[αAllylPro]DA[B5(4)]DDAA[Phe(3-CF3)]V[S8]F[Bta]Q-NH2
modifications: staple 1-4, 4-11
notes: Stapled peptide composition (olefin metathesis)
In assay [1], B1 had an EC50 of 945 nM.
With Ac-[αAllylPro]D[tBuAla][B5(4)]D[Phe(3-COOH)]AAFL[PyrS2][Phe(2-CF3)][Phe(3,4-Me2)]S-NH2 (staple 1-4, 4-11) [I-2293], in the assay with B-cat-Halo, the “NanoBRET Abs IC50” value was determined as 5700 nM.
In assay [2], Ac-[αAllylPro]DL[B5(5)]DDAAFN[S8]F[Bta]Q-NH2 (staple 1-4, 4-11) [I-562] gave a half-maximal effective concentration (EC50) of 51 nM.

B2: I-550 (peptide)
peptide: XDIXDDAAFNXFXQ
modifications: not fully specified; Ac-PL3-Asp-Ile-B5-Asp-Asp-Ala-Ala-Phe-Asn-S8-2OMeF-BztA-Gln-NH2; N-terminal acetyl, C-terminal amide; non-natural: PL3(1), B5(4), S8(11), 2OMeF(12), BztA(13); staples PL3(1)-B5(4) and B5(4)-S8(11)
B2 yielded a 50% effective concentration (EC50) in assay [2] of 30 nM.

B3: I-561 (peptide)
peptide: XDLXDDAAFQXFXH
modifications: not fully specified; Ac-PL3-Asp-Leu-B5-Asp-Asp-Ala-Ala-Phe-Gln-S8-Phe-BztA-His-NH2; N-terminal acetyl, C-terminal amide; non-natural: PL3(1), B5(4), S8(11), BztA(13); staples PL3(1)-B5(4) and B5(4)-S8(11)
B3 registered a half-maximal effective concentration (EC50) in assay [2] of 34 nM.

B4: I-554 (peptide)
peptide: XDIXDDAAFNXFXH
modifications: not fully specified; Ac-PL3-Asp-Ile-B5-Asp-Asp-Ala-Ala-Phe-Asn-S8-2OMeF-BztA-His-NH2; N-terminal acetyl, C-terminal amide; non-natural: PL3(1), B5(4), S8(11), 2OMeF(12), BztA(13); staples PL3(1)-B5(4) and B5(4)-S8(11)
With B4, the EC50 in assay [2] worked out at 27.5 nM.

B5: I-558 (peptide)
peptide: XDLXDDAAFQXFXQ
modifications: not fully specified; Ac-PL3-Asp-Leu-B5-Asp-Asp-Ala-Ala-Phe-Gln-S8-Phe-BztA-Gln-NH2; N-terminal acetyl, C-terminal amide; non-natural: PL3(1), B5(4), S8(11), BztA(13); staples PL3(1)-B5(4) and B5(4)-S8(11)
In turn, B5 gave an EC50 in assay [2] of 56 nM.

B6: I-559 (peptide)
peptide: XDLXDDAAFQXFXQ
modifications: not fully specified; Ac-PL3-Asp-Leu-B5-Asp-Asp-Ala-Ala-Phe-Gln-S8-Phe-BztA-Gln-NH2; N-terminal acetyl, C-terminal amide; non-natural: PL3(1), B5(4), S8(11), BztA(13); staples PL3(1)-B5(4) and B5(4)-S8(11)
In turn, B6 registered an EC50 in assay [2] of 43 nM.
Same read-out and setting: with Ac-[αAllylPro]DL[B5(5)]DDAAFQ[S8]F[Bta]H-NH2 (staple 1-4, 4-11) [I-560] the figure was 81 nM.
On the same count and under the same terms, with Ac-[αAllylPro]DI[B5(17)]DEAAFN[S8]F[Bta]Q-NH2 (staple 1-4, 4-11, Stapled (stitched) peptide composition) [I-557] the figure was 35 nM; with Ac-[αAllylPro]DL[B5(4)]DEAAFN[S8]F[Bta]H-NH2 (staple 1-4, 4-11, Stapled (stitched) peptide composition) [I-543], 32 nM.

B7: I-549 (peptide)
peptide: XDIXDDAAFNXFXQ
modifications: not fully specified; Ac-PL3-Asp-Ile-B5-Asp-Asp-Ala-Ala-Phe-Asn-S8-2OMeF-BztA-Gln-NH2; N-terminal acetyl, C-terminal amide; non-natural: PL3(1), B5(4), S8(11), 2OMeF(12), BztA(13); staples PL3(1)-B5(4) and B5(4)-S8(11)
Regarding B7, it took 71 nM to reach a half-maximal effect in assay [2] (EC50).

B8: I-553 (peptide)
peptide: XDIXDDAAFNXFXH
modifications: not fully specified; Ac-PL3-Asp-Ile-B5-Asp-Asp-Ala-Ala-Phe-Asn-S8-2OMeF-BztA-His-NH2; N-terminal acetyl, C-terminal amide; non-natural: PL3(1), B5(4), S8(11), 2OMeF(12), BztA(13); staples PL3(1)-B5(4) and B5(4)-S8(11)
In assay [2], B8 showed an EC50 of 61 nM.

B9: I-368 (peptide)
peptide: Ac-[αAllylPro]DA[B5(19)]DDAAFV[S8]F[7F1NapA]Q-NH2
modifications: staple 1-4, 4-11
notes: as for B1
Turning to B9, in assay [1], the concentration for a half-maximal effect (EC50) amounted to 5000 nM.

B10: I-378 (peptide)
peptide: Ac-[αAllylPro]DA[B5(9)]DDAA[Phe(3-CF3)]Q[S8]F[Bta]Q-NH2
modifications: staple 1-4, 4-11; not fully specified; printed as Ac-PL3-Asp-Ala-B5-Asp-Asp-Ala-Ala-3F3MeF-Gln-S8-Phe-BztA-Gln-NH2
notes: Stapled peptide
In the case of B10, the EC50 in assay [1] is 1340 nM.

B11: I-362 (peptide)
peptide: Ac-[αAllylPro]DA[B5(19)]DDAAFA[S8]H[Bta]Q-NH2
modifications: staple 1-4, 4-11
notes: as for B1
In assay [1], B11 came in with a 50% effective concentration (EC50) of 3660 nM.

B12: I-376 (peptide)
peptide: Ac-[αAllylPro]DA[B5(4)]DDAA[Phe(3-CF3)]A[S8]F[Bta]Q-NH2
modifications: staple 1-4, 4-11; not fully specified; printed as Ac-PL3-Asp-Ala-B5-Asp-Asp-Ala-Ala-3F3MeF-Ala-S8-Phe-BztA-Gln-NH2
notes: Stapled peptide
B12 came in with a concentration giving a half-maximal response (EC50) in assay [1] of 1320 nM.
